From US20220040297A1 (Chugai, published 2022)

Target: T1, CD3ε homodimer protein (human, UniProt P07766 23-126, limits assumed, sulfo-tag or biotin label in some ECL assays)
T1 construct: also called human CD3ε homodimer protein; CD3 (CD3ε)
Assay: SPR, CD3ε homodimer on chip;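 note: biacore SPR with antibody variants flowed as analyte over amine-coupled CD3ε homodimer on a CM chip, bound amount of each single-residue H chain variant over that of parent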

T1 sequence (P07766 23-126 limits assumed): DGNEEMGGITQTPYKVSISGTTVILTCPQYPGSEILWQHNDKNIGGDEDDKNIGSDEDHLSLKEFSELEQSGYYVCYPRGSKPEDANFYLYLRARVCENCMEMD

B1: CE115HA000 N54G (antibody, name in Kabat numbering, V domains shown)
VH: QVQLVESGGGVVQPGRSLRLSCAASGFTFSNAWMHWVRQAPGKGLEWVAQIKAKSNGYATYYAESVKGRFTISRDDSKNSLYLQMNSLKTEDTAVYYCRYVHYGAYYGVDAWGQGTTVTVSS
VL: DIVMTQSPLSLPVTPGEPASISCRSSQSLVHSNRNTYLHWYQQKPGQAPRLLIYKVSNRFSGVPDRFSGSGSGTDFTLKISRVEAEDVGVYYCGQGTQVPYTFGQGTKLEIK
ratio of amounts bound vs CE115HA000: 0.98

B2: CE115HA000 N54K (antibody, name in Kabat numbering, V domains shown)
VH: QVQLVESGGGVVQPGRSLRLSCAASGFTFSNAWMHWVRQAPGKGLEWVAQIKAKSNKYATYYAESVKGRFTISRDDSKNSLYLQMNSLKTEDTAVYYCRYVHYGAYYGVDAWGQGTTVTVSS
VL: DIVMTQSPLSLPVTPGEPASISCRSSQSLVHSNRNTYLHWYQQKPGQAPRLLIYKVSNRFSGVPDRFSGSGSGTDFTLKISRVEAEDVGVYYCGQGTQVPYTFGQGTKLEIK
ratio of amounts bound vs CE115HA000: 1.2

B3: CE115HA000 N54L (antibody, name in Kabat numbering, V domains shown)
VH: QVQLVESGGGVVQPGRSLRLSCAASGFTFSNAWMHWVRQAPGKGLEWVAQIKAKSNLYATYYAESVKGRFTISRDDSKNSLYLQMNSLKTEDTAVYYCRYVHYGAYYGVDAWGQGTTVTVSS
VL: DIVMTQSPLSLPVTPGEPASISCRSSQSLVHSNRNTYLHWYQQKPGQAPRLLIYKVSNRFSGVPDRFSGSGSGTDFTLKISRVEAEDVGVYYCGQGTQVPYTFGQGTKLEIK
ratio of amounts bound vs CE115HA000: 0.94

B4: CE115HA000 N54Q (antibody, name in Kabat numbering, V domains shown)
VH: QVQLVESGGGVVQPGRSLRLSCAASGFTFSNAWMHWVRQAPGKGLEWVAQIKAKSNQYATYYAESVKGRFTISRDDSKNSLYLQMNSLKTEDTAVYYCRYVHYGAYYGVDAWGQGTTVTVSS
VL: DIVMTQSPLSLPVTPGEPASISCRSSQSLVHSNRNTYLHWYQQKPGQAPRLLIYKVSNRFSGVPDRFSGSGSGTDFTLKISRVEAEDVGVYYCGQGTQVPYTFGQGTKLEIK
ratio of amounts bound vs CE115HA000: 0.84

B5: CE115HA000 N54S (antibody, name in Kabat numbering, V domains shown)
VH: QVQLVESGGGVVQPGRSLRLSCAASGFTFSNAWMHWVRQAPGKGLEWVAQIKAKSNSYATYYAESVKGRFTISRDDSKNSLYLQMNSLKTEDTAVYYCRYVHYGAYYGVDAWGQGTTVTVSS
VL: DIVMTQSPLSLPVTPGEPASISCRSSQSLVHSNRNTYLHWYQQKPGQAPRLLIYKVSNRFSGVPDRFSGSGSGTDFTLKISRVEAEDVGVYYCGQGTQVPYTFGQGTKLEIK
ratio of amounts bound vs CE115HA000: 0.84

B6: CE115HA000 Q50A (antibody, name in Kabat numbering, V domains shown)
VH: QVQLVESGGGVVQPGRSLRLSCAASGFTFSNAWMHWVRQAPGKGLEWVAAIKAKSNNYATYYAESVKGRFTISRDDSKNSLYLQMNSLKTEDTAVYYCRYVHYGAYYGVDAWGQGTTVTVSS
VL: DIVMTQSPLSLPVTPGEPASISCRSSQSLVHSNRNTYLHWYQQKPGQAPRLLIYKVSNRFSGVPDRFSGSGSGTDFTLKISRVEAEDVGVYYCGQGTQVPYTFGQGTKLEIK
ratio of amounts bound vs CE115HA000: 0.24

B7: CE115HA000 Q50D (antibody, name in Kabat numbering, V domains shown)
VH: QVQLVESGGGVVQPGRSLRLSCAASGFTFSNAWMHWVRQAPGKGLEWVADIKAKSNNYATYYAESVKGRFTISRDDSKNSLYLQMNSLKTEDTAVYYCRYVHYGAYYGVDAWGQGTTVTVSS
VL: DIVMTQSPLSLPVTPGEPASISCRSSQSLVHSNRNTYLHWYQQKPGQAPRLLIYKVSNRFSGVPDRFSGSGSGTDFTLKISRVEAEDVGVYYCGQGTQVPYTFGQGTKLEIK
ratio of amounts bound vs CE115HA000: 0.27

B8: CE115HA000 Q50E (antibody, name in Kabat numbering, V domains shown)
VH: QVQLVESGGGVVQPGRSLRLSCAASGFTFSNAWMHWVRQAPGKGLEWVAEIKAKSNNYATYYAESVKGRFTISRDDSKNSLYLQMNSLKTEDTAVYYCRYVHYGAYYGVDAWGQGTTVTVSS
VL: DIVMTQSPLSLPVTPGEPASISCRSSQSLVHSNRNTYLHWYQQKPGQAPRLLIYKVSNRFSGVPDRFSGSGSGTDFTLKISRVEAEDVGVYYCGQGTQVPYTFGQGTKLEIK
ratio of amounts bound vs CE115HA000: 0.26

B9: CE115HA000 Q50I (antibody, name in Kabat numbering, V domains shown)
VH: QVQLVESGGGVVQPGRSLRLSCAASGFTFSNAWMHWVRQAPGKGLEWVAIIKAKSNNYATYYAESVKGRFTISRDDSKNSLYLQMNSLKTEDTAVYYCRYVHYGAYYGVDAWGQGTTVTVSS
VL: DIVMTQSPLSLPVTPGEPASISCRSSQSLVHSNRNTYLHWYQQKPGQAPRLLIYKVSNRFSGVPDRFSGSGSGTDFTLKISRVEAEDVGVYYCGQGTQVPYTFGQGTKLEIK
ratio of amounts bound vs CE115HA000: 0.4

B10: CE115HA000 Q50K (antibody, name in Kabat numbering, V domains shown)
VH: QVQLVESGGGVVQPGRSLRLSCAASGFTFSNAWMHWVRQAPGKGLEWVAKIKAKSNNYATYYAESVKGRFTISRDDSKNSLYLQMNSLKTEDTAVYYCRYVHYGAYYGVDAWGQGTTVTVSS
VL: DIVMTQSPLSLPVTPGEPASISCRSSQSLVHSNRNTYLHWYQQKPGQAPRLLIYKVSNRFSGVPDRFSGSGSGTDFTLKISRVEAEDVGVYYCGQGTQVPYTFGQGTKLEIK
ratio of amounts bound vs CE115HA000: 0.33

B11: CE115HA000 Q50L (antibody, name in Kabat numbering, V domains shown)
VH: QVQLVESGGGVVQPGRSLRLSCAASGFTFSNAWMHWVRQAPGKGLEWVALIKAKSNNYATYYAESVKGRFTISRDDSKNSLYLQMNSLKTEDTAVYYCRYVHYGAYYGVDAWGQGTTVTVSS
VL: DIVMTQSPLSLPVTPGEPASISCRSSQSLVHSNRNTYLHWYQQKPGQAPRLLIYKVSNRFSGVPDRFSGSGSGTDFTLKISRVEAEDVGVYYCGQGTQVPYTFGQGTKLEIK
ratio of amounts bound vs CE115HA000: 0.23

B12: CE115HA000 Q50S (antibody, name in Kabat numbering, V domains shown)
VH: QVQLVESGGGVVQPGRSLRLSCAASGFTFSNAWMHWVRQAPGKGLEWVASIKAKSNNYATYYAESVKGRFTISRDDSKNSLYLQMNSLKTEDTAVYYCRYVHYGAYYGVDAWGQGTTVTVSS
VL: DIVMTQSPLSLPVTPGEPASISCRSSQSLVHSNRNTYLHWYQQKPGQAPRLLIYKVSNRFSGVPDRFSGSGSGTDFTLKISRVEAEDVGVYYCGQGTQVPYTFGQGTKLEIK
ratio of amounts bound vs CE115HA000: 0.24

B13: CE115HA000 Q50Y (antibody, name in Kabat numbering, V domains shown)
VH: QVQLVESGGGVVQPGRSLRLSCAASGFTFSNAWMHWVRQAPGKGLEWVAYIKAKSNNYATYYAESVKGRFTISRDDSKNSLYLQMNSLKTEDTAVYYCRYVHYGAYYGVDAWGQGTTVTVSS
VL: DIVMTQSPLSLPVTPGEPASISCRSSQSLVHSNRNTYLHWYQQKPGQAPRLLIYKVSNRFSGVPDRFSGSGSGTDFTLKISRVEAEDVGVYYCGQGTQVPYTFGQGTKLEIK
ratio of amounts bound vs CE115HA000: 0.25

B14: CE115HA000 Q105E (antibody, name in Kabat numbering, V domains shown)
VH: QVQLVESGGGVVQPGRSLRLSCAASGFTFSNAWMHWVRQAPGKGLEWVAQIKAKSNNYATYYAESVKGRFTISRDDSKNSLYLQMNSLKTEDTAVYYCRYVHYGAYYGVDAWGEGTTVTVSS
VL: DIVMTQSPLSLPVTPGEPASISCRSSQSLVHSNRNTYLHWYQQKPGQAPRLLIYKVSNRFSGVPDRFSGSGSGTDFTLKISRVEAEDVGVYYCGQGTQVPYTFGQGTKLEIK
ratio of amounts bound vs CE115HA000: 0.94

B15: CE115HA000 R16E (antibody, name in Kabat numbering, V domains shown)
VH: QVQLVESGGGVVQPGESLRLSCAASGFTFSNAWMHWVRQAPGKGLEWVAQIKAKSNNYATYYAESVKGRFTISRDDSKNSLYLQMNSLKTEDTAVYYCRYVHYGAYYGVDAWGQGTTVTVSS
VL: DIVMTQSPLSLPVTPGEPASISCRSSQSLVHSNRNTYLHWYQQKPGQAPRLLIYKVSNRFSGVPDRFSGSGSGTDFTLKISRVEAEDVGVYYCGQGTQVPYTFGQGTKLEIK
ratio of amounts bound vs CE115HA000: 0.88

B16: CE115HA000 R16Q (antibody, name in Kabat numbering, V domains shown)
VH: QVQLVESGGGVVQPGQSLRLSCAASGFTFSNAWMHWVRQAPGKGLEWVAQIKAKSNNYATYYAESVKGRFTISRDDSKNSLYLQMNSLKTEDTAVYYCRYVHYGAYYGVDAWGQGTTVTVSS
VL: DIVMTQSPLSLPVTPGEPASISCRSSQSLVHSNRNTYLHWYQQKPGQAPRLLIYKVSNRFSGVPDRFSGSGSGTDFTLKISRVEAEDVGVYYCGQGTQVPYTFGQGTKLEIK
ratio of amounts bound vs CE115HA000: 0.9

B17: CE115HA000 R19T (antibody, name in Kabat numbering, V domains shown)
VH: QVQLVESGGGVVQPGRSLTLSCAASGFTFSNAWMHWVRQAPGKGLEWVAQIKAKSNNYATYYAESVKGRFTISRDDSKNSLYLQMNSLKTEDTAVYYCRYVHYGAYYGVDAWGQGTTVTVSS
VL: DIVMTQSPLSLPVTPGEPASISCRSSQSLVHSNRNTYLHWYQQKPGQAPRLLIYKVSNRFSGVPDRFSGSGSGTDFTLKISRVEAEDVGVYYCGQGTQVPYTFGQGTKLEIK
ratio of amounts bound vs CE115HA000: 0.8

B18: CE115HA000 S30D (antibody, name in Kabat numbering, V domains shown)
VH: QVQLVESGGGVVQPGRSLRLSCAASGFTFDNAWMHWVRQAPGKGLEWVAQIKAKSNNYATYYAESVKGRFTISRDDSKNSLYLQMNSLKTEDTAVYYCRYVHYGAYYGVDAWGQGTTVTVSS
VL: DIVMTQSPLSLPVTPGEPASISCRSSQSLVHSNRNTYLHWYQQKPGQAPRLLIYKVSNRFSGVPDRFSGSGSGTDFTLKISRVEAEDVGVYYCGQGTQVPYTFGQGTKLEIK
ratio of amounts bound vs CE115HA000: 0.86

B19: CE115HA000 S30G (antibody, name in Kabat numbering, V domains shown)
VH: QVQLVESGGGVVQPGRSLRLSCAASGFTFGNAWMHWVRQAPGKGLEWVAQIKAKSNNYATYYAESVKGRFTISRDDSKNSLYLQMNSLKTEDTAVYYCRYVHYGAYYGVDAWGQGTTVTVSS
VL: DIVMTQSPLSLPVTPGEPASISCRSSQSLVHSNRNTYLHWYQQKPGQAPRLLIYKVSNRFSGVPDRFSGSGSGTDFTLKISRVEAEDVGVYYCGQGTQVPYTFGQGTKLEIK
ratio of amounts bound vs CE115HA000: 1.01

B20: CE115HA000 S52cA (antibody, name in Kabat numbering, V domains shown)
VH: QVQLVESGGGVVQPGRSLRLSCAASGFTFSNAWMHWVRQAPGKGLEWVAQIKAKANNYATYYAESVKGRFTISRDDSKNSLYLQMNSLKTEDTAVYYCRYVHYGAYYGVDAWGQGTTVTVSS
VL: DIVMTQSPLSLPVTPGEPASISCRSSQSLVHSNRNTYLHWYQQKPGQAPRLLIYKVSNRFSGVPDRFSGSGSGTDFTLKISRVEAEDVGVYYCGQGTQVPYTFGQGTKLEIK
ratio of amounts bound vs CE115HA000: 0.96

B21: CE115HA000 S52cD (antibody, name in Kabat numbering, V domains shown)
VH: QVQLVESGGGVVQPGRSLRLSCAASGFTFSNAWMHWVRQAPGKGLEWVAQIKAKDNNYATYYAESVKGRFTISRDDSKNSLYLQMNSLKTEDTAVYYCRYVHYGAYYGVDAWGQGTTVTVSS
VL: DIVMTQSPLSLPVTPGEPASISCRSSQSLVHSNRNTYLHWYQQKPGQAPRLLIYKVSNRFSGVPDRFSGSGSGTDFTLKISRVEAEDVGVYYCGQGTQVPYTFGQGTKLEIK
ratio of amounts bound vs CE115HA000: 0.6
